According to publication PMC12407707 (bioRxiv, 2025):

Experiments:
[1] = molecular target: purified human PSA (shorter isoform), mCherry-Strep-tag II removed by thrombin (human, UniProt P55786-1 45-919); assay: cryo-EM structure
cryo-EM structure = molecular target: the molecule itself; assay: cryo-EM structure

Chain of purified human PSA (shorter isoform), mCherry-Strep-tag II removed by thrombin (P55786 45-919): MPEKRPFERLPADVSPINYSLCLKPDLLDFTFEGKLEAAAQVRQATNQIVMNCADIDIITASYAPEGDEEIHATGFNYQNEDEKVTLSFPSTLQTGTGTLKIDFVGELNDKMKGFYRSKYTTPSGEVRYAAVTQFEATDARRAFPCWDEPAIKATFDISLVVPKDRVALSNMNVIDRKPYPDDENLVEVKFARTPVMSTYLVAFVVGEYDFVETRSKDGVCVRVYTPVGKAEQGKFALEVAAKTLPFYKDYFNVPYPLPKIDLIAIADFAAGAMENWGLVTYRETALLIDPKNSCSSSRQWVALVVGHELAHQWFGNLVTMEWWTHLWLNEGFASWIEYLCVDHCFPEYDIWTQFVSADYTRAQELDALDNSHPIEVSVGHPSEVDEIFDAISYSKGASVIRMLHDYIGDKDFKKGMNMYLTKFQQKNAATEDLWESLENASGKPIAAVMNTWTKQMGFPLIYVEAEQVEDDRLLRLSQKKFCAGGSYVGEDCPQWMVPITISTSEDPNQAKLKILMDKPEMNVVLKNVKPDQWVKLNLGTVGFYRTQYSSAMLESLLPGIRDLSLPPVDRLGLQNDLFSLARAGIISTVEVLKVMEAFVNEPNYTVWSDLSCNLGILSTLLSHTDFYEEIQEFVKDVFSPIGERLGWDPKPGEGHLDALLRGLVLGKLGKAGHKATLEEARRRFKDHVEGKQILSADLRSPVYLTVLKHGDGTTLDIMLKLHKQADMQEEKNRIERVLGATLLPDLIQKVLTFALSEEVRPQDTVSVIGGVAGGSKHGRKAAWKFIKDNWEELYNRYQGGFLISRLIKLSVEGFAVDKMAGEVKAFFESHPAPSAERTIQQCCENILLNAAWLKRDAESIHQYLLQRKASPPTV

B1: purified human SWELL1 homo-hexamer, tag removed by thrombin (cryo-EM sample) (natural protein)
chain: MIPVTELRYFADTQPAYRILKPWWDVFTDYISIVMLMIAVFGGTLQVTQDKMICLPCKWVTKDSCNDSFRGWAAPGPEPTYPNSTILPTPDTGPTGIKYDLDRHQYNYVDAVCYENRLHWFAKYFPYLVLLHTLIFLACSNFWFKFPRTSSKLEHFVSILLKCFDSPWTTRALSETVVEESDPKPAFSKMNGSMDKKSSTVSEDVEATVPMLQRTKSRIEQGIVDRSETGVLDKKEGEQAKALFEKVKKFRTHVEEGDIVYRLYMRQTIIKVIKFILIICYTVYYVHNIKFDVDCTVDIESLTGYRTYRCAHPLATLFKILASFYISLVIFYGLICMYTLWWMLRRSLKKYSFESIREESSYSDIPDVKNDFAFMLHLIDQYDPLYSKRFAVFLSEVSENKLRQLNLNNEWTLDKLRQRLTKNAQDKLELHLFMLSGIPDTVFDLVELEVLKLELIPDVTIPPSIAQLTGLKELWLYHTAAKIEAPALAFLRENLRALHIKFTDIKEIPLWIYSLKTLEELHLTGNLSAENNRYIVIDGLRELKRLKVLRLKSNLSKLPQVVTDVGVHLQKLSINNEGTKLIVLNSLKKMANLTELELIRCDLERIPHSIFSLHNLQEIDLKDNNLKTIEEIISFQHLHRLTCLKLWYNHIAYIPIQIGNLTNLERLYLNRNKIEKIPTQLFYCRKLRYLDLSHNNLTFLPADIGLLQNLQNLAITANRIETLPPELFQCRKLRALHLGNNVLQSLPSRVGELTNLTQIELRGNRLECLPVELGECPLLKRSGLVVEEDLFNTLPPEVKERLWRADKEQA
B1 was tested, and the binding result [1] was “binds” and the “stoichiometry N” value (cryo-EM structure) was 6.
